Holding throughout (test): MST
Assay [1] deals with 6xHis-MBP-SpyCas9 (Streptococcus pyogenes) (UniProt Q99ZW2).
Assay [2] has the same target. This is another data set of the same source.
The target of assay [3] is 6xHis-MBP-SpyCas9(D10A) (Streptococcus pyogenes) (UniProt Q99ZW2).
For assay [4], the target named is 6xHis-MBP-SpyCas9(H840A) (Streptococcus pyogenes) (UniProt Q99ZW2).
For assay [5], the target named is 6xHis-MBP-deadSpyCas9 (Streptococcus pyogenes) (UniProt Q99ZW2).
Assay [6] has as its target Cas9-gRNA prebound to AcrIIA2b.3 (Streptococcus pyogenes | not stated) (UniProt Q99ZW2).

This is an account of results in article PMC7351598.

pKd: −log10 of the molar value. Where two headings read alike, the source gives them in different places.

In the case of AcrIIA1 (natural protein), the pKd in assay [1] is 7.51; in assay [2], 7.64; in assay [3], 7.42; in assay [4], 5.70; in assay [5], 6.04; in assay [6] it was 7.62.
Take AcrIIA2b.3 (natural protein): the pKd in assay [2] is 7.70.
